± gives the standard deviation.
Experiment: protein stability index of a GFP-peptide fusion (GPS, HEK-293T) (PSI 1-6); higher = more stable
[1] = treatment: DMSO, c terminus: a fixed tail appended
[2] = treatment: MLN4924 1 uM, 8 h, c terminus: a fixed tail appended
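Also: 24-mer peptide tiles fused after GFP, lentivirally expressed, FACS-sorted into six equal bins by GFP/DsRed ratio, decoded by Illumina sequencing, PSI is the read-weighted mean bin number.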

## IYRRYRQFHALQSKLEERFGPDSK [NCF4]
[1]
  protein stability index: 2.28 ± 0.23
[2]
  protein stability index: 2.61 ± 0.34

## WYSRLQACQWGGNFLAFSVRRVS
treatment: DMSO, c terminus: native
  protein stability index: 3.17 ± 0.58
treatment: MLN4924 1 uM, 8 h, c terminus: native
  protein stability index: 2.15 ± 0.83

## CLHHVHYLATEYLETHFRDVSSTE [GAN]
[1]
  protein stability index: 2.37 ± 0.23
[2]
  protein stability index: 2.52 ± 0.54

## EERNRFTETREEDVTDEHGEREPF [FAM9B]
[1]
  protein stability index: 5.62 ± 0.17
[2]
  protein stability index: 5.58 ± 0.12

## QDPEGKGEQEHSQQKEEEEEMAVV [CHGA]
[1]
  protein stability index: 5.43 ± 0.34
[2]
  protein stability index: 5.69 ± 0.13

## EIFQKPFQTLMFLVRDWSFPYEYS [ATL3]
[1]
  protein stability index: 2.73 ± 0.56
[2]
  protein stability index: 3.52 ± 0.089

## PEGTENPLGVDESLFSYGLRESIA [SLA]
[1]
  protein stability index: 4.04 ± 1.1
[2]
  protein stability index: 4.19 ± 0.1

## GSDTGASLKLASSELERLIVPNSN [JUNB]
[1]
  protein stability index: 4.31 ± 0.057
[2]
  protein stability index: 4.15 ± 0.17

## GASKAAGVFGFFATIVFATDFYLI [CMTM3]
[1]
  protein stability index: 3.07 ± 0.23
[2]
  protein stability index: 2.88 ± 0.88

## EAEKLERQLALPATEQAATQESTF [NOP53]
[1]
  protein stability index: 5.43 ± 0.32
[2]
  protein stability index: 5.53 ± 0.1

## VLLMHMPAEQAFWCLVQICEKYLP [TBC1D10A]
[1]
  protein stability index: 2.96 ± 0.37
[2]
  protein stability index: 2.88 ± 0.57

## KKEELLFDDGDDIMATLGFGDSPK [FBF1]
[1]
  protein stability index: 4.54 ± 0.2
[2]
  protein stability index: 4.59 ± 0.27

## MVQVACGASHVLALSTERELFAWG [NEK8]
[1]
  protein stability index: 2.59 ± 1.1
[2]
  protein stability index: 2.32 ± 0.84

## EEENDYRNLDASPTYKGLLMSLQN [CEP70]
[1]
  protein stability index: 3.67 ± 0.18
[2]
  protein stability index: 3.63 ± 0.34

## NYCLLFLIYTVMLAFRSGSDNLLV [SLC35F2]
[1]
  protein stability index: 3.04 ± 0.44
[2]
  protein stability index: 3.29 ± 0.79

## TRDGFKLVMASLYHIYVALEEEIE [HMOX1]
[1]
  protein stability index: 2.15 ± 0.52
[2]
  protein stability index: 2.56 ± 0.51

## PNIAMTSGTVQPKQDAFANFANFS [CLINT1]
[1]
  protein stability index: 3.61 ± 0.34
[2]
  protein stability index: 3.66 ± 0.14

## LVPKTHLMSESEWRNLGVQQSQGW [CKS1B]
[1]
  protein stability index: 2.64 ± 0.32
[2]
  protein stability index: 2.86 ± 0.2

## DARYKLHHHLHKTLREITDQEHNV [TEKT4]
[1]
  protein stability index: 3.77 ± 0.29
[2]
  protein stability index: 4.02 ± 0.14

## SASSSTTCCESTQRSVSDVASGST [IRX6]
[1]
  protein stability index: 5.12 ± 0.26
[2]
  protein stability index: 5.26 ± 0.11

## LSRTNEELLWKLQTGDPTSPIKLS [MTUS2]
[1]
  protein stability index: 3.49 ± 0.12
[2]
  protein stability index: 3.35 ± 0.25

## AVSCPYLPSNLLKKFRSSTSSSLG [KCNA4]
[1]
  protein stability index: 2.54 ± 0.21
[2]
  protein stability index: 2.58 ± 0.2

## QTPTKEELDAIIEEVDEDGSGTID [TNNC2]
[1]
  protein stability index: 5.67 ± 0.44
[2]
  protein stability index: 5.16 ± 0.28

## EFCEPAFVVGNCLQIASDSHQYDR [PCMTD1]
[1]
  protein stability index: 3.5 ± 0.49
[2]
  protein stability index: 3.51 ± 0.31

## EPLRSEILSGKFTILNVRDPTGAS [PTPN9]
[1]
  protein stability index: 3.65 ± 0.098
[2]
  protein stability index: 3.58 ± 0.16

## AGTGAQAGQLMGFFKGIDQDIERG [LYSMD4]
[1]
  protein stability index: 4.01 ± 0.37
[2]
  protein stability index: 4.01 ± 0.29

## LQYILAQIGFSVGLGNIWRFPYLC [SLC6A17]
[1]
  protein stability index: 2.27 ± 0.16
[2]
  protein stability index: 2.88 ± 0.31

## RFPESHLPIQTPGAFLRTCLLSSN [TLE6]
[1]
  protein stability index: 2.71 ± 0.14
[2]
  protein stability index: 2.6 ± 0.26

## ENHPDVFSDSSMDHFQKFLPTVGG [MYOZ1]
[1]
  protein stability index: 2.99 ± 0.5
[2]
  protein stability index: 3.34 ± 0.53

## QYNRSSNSNGGNLNSPPGPHSAKT [CDC14A]
[1]
  protein stability index: 4.42 ± 0.19
[2]
  protein stability index: 4.33 ± 0.29

## KGISQTNLITTVTPEKKAEEERDE [EPB41L3]
[1]
  protein stability index: 5.54 ± 0.13
[2]
  protein stability index: 5.59 ± 0.2

## KFLIWDTAGQERFRALAPMYYRGS [RAB22A]
[1]
  protein stability index: 2.39 ± 0.23
[2]
  protein stability index: 2.55 ± 0.33

## CSRTWTNRLCHQEMGSKKTVTQED [SPAG8]
[1]
  protein stability index: 3.7 ± 0.13
[2]
  protein stability index: 3.74 ± 0.14

## SWWADLRALARNLIFGLITCLTGV [SPNS1]
[1]
  protein stability index: 3.88 ± 0.43
[2]
  protein stability index: 3.92 ± 0.24

## CMPLVCTAIFYTLMTCEMLNRRNG [EDNRA]
[1]
  protein stability index: 3.29 ± 0.24
[2]
  protein stability index: 3.58 ± 0.93

## LCIIWFSFELLVRFFACPSKATFS [KCNA3]
[1]
  protein stability index: 3.13 ± 0.39
[2]
  protein stability index: 3.12 ± 0.58

## NCGLEEKIANLGSCNDSKLEFRSF [S100A14]
[1]
  protein stability index: 2.25 ± 0.68
[2]
  protein stability index: 2.82 ± 1.2

## SGRNGEVSLDISPDLPFQIKPSEN [PCDHGC5]
[1]
  protein stability index: 4.47 ± 0.25
[2]
  protein stability index: 4.56 ± 0.26

## EAFLAQFSQLEDKFPGQSSFLWQR [TOR1AIP2]
[1]
  protein stability index: 2.39 ± 0.56
[2]
  protein stability index: 2.5 ± 0.53

## KIWPEIKVPRPDALDNESWGFVHP [RETREG3]
[1]
  protein stability index: 2.68 ± 0.48
[2]
  protein stability index: 2.57 ± 0.54

## DPGQVGLINSNVSMVDLTSVTLED [FAN1]
[1]
  protein stability index: 5.05 ± 0.092
[2]
  protein stability index: 4.79 ± 0.2

## GLEGLFEDIDTSMYDNELWAPASE [SERTAD1]
[1]
  protein stability index: 3.79 ± 0.05
[2]
  protein stability index: 3.81 ± 0.29

## DWVSDWSSRPENIPPKEFHFRHPK [BNIP3L]
[1]
  protein stability index: 3.79 ± 0.27
[2]
  protein stability index: 3.68 ± 0.093

## RLVLCMELANGKPQTRSGPECGLA [ADAMTSL2]
[2]
  protein stability index: 2.22 ± 0.53

## ELTNGVINAAFMLLFKDLIKLFAC [SNAP91]
[1]
  protein stability index: 3.57 ± 0.5
[2]
  protein stability index: 3.14 ± 0.57

Source: the supplement of paper PMC10567573
